According to paper PMC10697138:

Key:
[1] = target: hIL-4Rα–hIL-13Rα1 complex (human type II IL-4 receptor) (human) (UniProt P78552)
IL-4Rα (Homo sapiens) = IL-4Rα (Homo sapiens) (UniProt P24394); settings: cited from earlier work
UniProt P24394, sequence (P24394 26-232): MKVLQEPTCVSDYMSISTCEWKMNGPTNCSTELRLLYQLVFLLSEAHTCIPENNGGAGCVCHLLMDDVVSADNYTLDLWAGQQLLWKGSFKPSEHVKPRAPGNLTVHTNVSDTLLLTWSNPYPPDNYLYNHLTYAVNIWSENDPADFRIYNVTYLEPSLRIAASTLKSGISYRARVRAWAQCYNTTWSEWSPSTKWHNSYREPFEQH

UniProt P78552, sequence (P78552 22-343, chain 1 of 2): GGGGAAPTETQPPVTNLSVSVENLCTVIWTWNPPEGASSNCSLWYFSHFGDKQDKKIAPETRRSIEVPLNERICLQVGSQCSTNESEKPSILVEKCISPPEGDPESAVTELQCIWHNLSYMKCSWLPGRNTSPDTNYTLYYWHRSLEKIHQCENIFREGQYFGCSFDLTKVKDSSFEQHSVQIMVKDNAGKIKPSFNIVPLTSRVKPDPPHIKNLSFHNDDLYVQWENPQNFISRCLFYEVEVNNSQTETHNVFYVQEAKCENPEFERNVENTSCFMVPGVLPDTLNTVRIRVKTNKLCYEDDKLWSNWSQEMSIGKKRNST
UniProt P78552, sequence (P24394 26-232, chain 2 of 2, further chain): as the sequence (P24394 26-232) above

Row | Substance | Kd [1] [nM] | Kd (IL-4Rα (Homo sapiens)) [nM]
1 | human interleukin-4 (hIL-4) (from UniProt P05112 25-153) (ligand) | 101 | –
2 | IL-4 (from UniProt P05112) | – | < 1
